Data: the RNAGym collection of RNA variant scans (doi:10.1073/pnas.2313332121)

B1: TPR t1 (parent)
chain: GACCAAUCUGCCCUCAGAGCUCGAGAACAUCUUCGGAUGCAGAGGAGGCAGGCUUCGGUGGCGCGAUAGCGCCAACGUCCUCAACCUCCAAUGCAUCCCACCACAUGAUGAUGCCUGAAGAGCCUUGGUUUUUUG

Variants of: B1
Test: polymerase ribozyme fitness, log enrichment relative to wild type (log ratio); higher = more active; in vitro selection for triplet polymerase activity
In short: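 A heterodimeric triplet polymerase ribozyme had each of its subunits mutagenized by PCR into a library, which was transcribed. One round of in vitro selection, done in triplicate, annealed each library with a biotinylated primer, its partner subunit and triplets, then incubated it frozen at −7 °C before gel excision of extended constructs, streptavidin-bead capture and RT-PCR. Fitness is the logarithm of genotype enrichment relative to wild-type enrichment, based on Illumina sequencing of inputs and outputs and inverse-variance-weighted replicate averages. A base-2 logarithm is used, and genotypes were kept only with ≥10 input reads and ≥1 read per output.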

Compared with U30C C56A C82U C94U G113C, A29G A37G G63A C88U A111C is higher in “polymerase ribozyme fitness (log ratio)” value: -5.15 for the first, -3.49 for the second.

Compared with C31G G48U C72U C86G A100C G120C, C31A A50G U55G G107A C124U is higher in “polymerase ribozyme fitness (log ratio)” value: -7.02 for the first, -3.71 for the second.

Going from A29G G61A C124A to U30C U54A, the “polymerase ribozyme fitness (log ratio)” value falls from 0.686 to -2.81.

Compared with U30C U106A, A29G G45A A121C G128C is lower in “polymerase ribozyme fitness (log ratio)” value: -1.11 for the first, -2.4 for the second.

First: A29G A50U C70G G113A
Second: A29U U59G U78G G120U G128C U134A
The “polymerase ribozyme fitness (log ratio)” value of the first is lower: -5.1 for the first, -2.27 for the second.

Compared with U30A A118U, C31G C124A U129G is lower in “polymerase ribozyme fitness (log ratio)” value: -5.54 for the first, -6.34 for the second.

First: C31A G120C
Second: A29U U130G
The “polymerase ribozyme fitness (log ratio)” value of the first is lower: -4.32 for the first, -2.07 for the second.

First: C31A C88U A121G
Second: U30C C86A G135C
The “polymerase ribozyme fitness (log ratio)” value of the first is higher: -2.7 for the first, -4.17 for the second.

First: A29U C31A G69A C104G G117C A121U
Second: A29C C73U U96A
The “polymerase ribozyme fitness (log ratio)” value of the first is lower: -7.2 for the first, -5.54 for the second.

Going from C31A U54C G60U A121C to A29G G52A G71U C73U, the “polymerase ribozyme fitness (log ratio)” value rises from -5.42 to -4.52.

Going from A29U G52U C76A C123U G135U to U30G C72U C80A A108C, the “polymerase ribozyme fitness (log ratio)” value rises from -3.34 to -2.77.

Compared with A29U C31G C97G U112A U129G, A29G G45U C73U U78G U87G is higher in “polymerase ribozyme fitness (log ratio)” value: -6.42 for the first, -2.9 for the second.

First: C31A C115A
Second: A29U U112G
The “polymerase ribozyme fitness (log ratio)” value of the first is lower: -4.37 for the first, -0.993 for the second.

First: A29U U112A
Second: A29G C53G U87C G113C
The “polymerase ribozyme fitness (log ratio)” value of the first is higher: -0.754 for the first, -3.02 for the second.

Compared with U30A G52U G60A, A29U G48U C72G G120A is higher in “polymerase ribozyme fitness (log ratio)” value: -4.07 for the first, -3.12 for the second.

Compared with A29C A66G G120A, A29C A37G G47U C101U G110U is lower in “polymerase ribozyme fitness (log ratio)” value: -2.9 for the first, -5.5 for the second.

Compared with A29C A50U, A29U C89U is higher in “polymerase ribozyme fitness (log ratio)” value: -2.67 for the first, -2.05 for the second.

Compared with C31G G45C C64G G113U, C31A A37U C88A A111G U112G U129A is lower in “polymerase ribozyme fitness (log ratio)” value: -5.01 for the first, -7.12 for the second.

Compared with U30G G69U G120A U126A U131G, C31G C72U A95C G113A is lower in “polymerase ribozyme fitness (log ratio)” value: -4.39 for the first, -6.94 for the second.

Going from U30G C34G G35C A41U C53U C76U C124G to A29U C31G C34G G44A G60A C114U, the “polymerase ribozyme fitness (log ratio)” value rises from -8.38 to -6.84.

Going from A29U G45C C115A U133A to A29U C114U G120C C123U G128C, the “polymerase ribozyme fitness (log ratio)” value falls from -3.42 to -4.45.

Compared with A29G G51A, A29G G58C G120U is higher in “polymerase ribozyme fitness (log ratio)” value: -3.06 for the first, -1.73 for the second.

First: U30C C73U
Second: A29C G44C C53U C85A C124G
The “polymerase ribozyme fitness (log ratio)” value of the first is higher: -2.48 for the first, -4.76 for the second.

First: A29U G44A C101U
Second: A29U G39U A74U A91U U132A
The “polymerase ribozyme fitness (log ratio)” value of the first is lower: -4.87 for the first, -4.44 for the second.

Compared with A29C G36U C73U, A29G A37U A95C is higher in “polymerase ribozyme fitness (log ratio)” value: -3.91 for the first, -3.29 for the second.

First: A29C C64A U109G G113A
Second: C31G G36U C49U U112G
The “polymerase ribozyme fitness (log ratio)” value of the first is higher: -6.15 for the first, -6.99 for the second.

First: A29C G77U U81C
Second: A29U U87G A90C
The “polymerase ribozyme fitness (log ratio)” value of the first is lower: -4.43 for the first, -3.17 for the second.

Going from A29G A121U to U30C C56G C70U C79A C89U C98U C101A G110C, the “polymerase ribozyme fitness (log ratio)” value falls from 0.902 to -6.87.

Going from A29G C115U to U30C C97G A108U U112A C124G, the “polymerase ribozyme fitness (log ratio)” value falls from -1.56 to -7.16.

Compared with A29U G44U G45A, U30G G69U U78G is higher in “polymerase ribozyme fitness (log ratio)” value: -4.25 for the first, -3.84 for the second.

Compared with C31A C72U U92G G113U, C31A U106G G107U is higher in “polymerase ribozyme fitness (log ratio)” value: -6.05 for the first, -1.91 for the second.

Compared with U30C G63U C85U, A29U C40U C49A U106A is higher in “polymerase ribozyme fitness (log ratio)” value: -5.85 for the first, -1.76 for the second.

First: A29G C34A
Second: A29C C124G
The “polymerase ribozyme fitness (log ratio)” value of the first is lower: -4.34 for the first, -0.564 for the second.

First: A29C C124A
Second: A29G G39U C94G
The “polymerase ribozyme fitness (log ratio)” value of the first is higher: -0.296 for the first, -2.78 for the second.

Going from A29G C62U A118U G120C to A29U A41G C53G, the “polymerase ribozyme fitness (log ratio)” value falls from -1.4 to -2.64.

Compared with A29G C72A G113A G128A, A29U G58C G120C C124A is higher in “polymerase ribozyme fitness (log ratio)” value: -2.62 for the first, -1.02 for the second.

First: U30C C56G C70G U109A
Second: C31A U112C
The “polymerase ribozyme fitness (log ratio)” value of the first is lower: -5.1 for the first, -3.86 for the second.

A29G C62U and A29U C94A are within 0.2 log units of each other in “polymerase ribozyme fitness (log ratio)” value: -1.68 for the first, -1.79 for the second.

Going from U30C C115A to A29G A90C, the “polymerase ribozyme fitness (log ratio)” value rises from -2.84 to -2.34.

Compared with A29G G60C A74U, A29U G42U G52A U109G is higher in “polymerase ribozyme fitness (log ratio)” value: -3.15 for the first, -2.63 for the second.

Compared with A29G C104U U106G, A29C G63U is lower in “polymerase ribozyme fitness (log ratio)” value: -1.09 for the first, -3.09 for the second.

For U30A G39C, the “polymerase ribozyme fitness (log ratio)” value was -5.36.
